Experimental findings from the supplement of paper PMC10567573 are described below.

± gives the standard deviation.

The data set can be described thus: protein stability index of a GFP-peptide fusion (GPS, HEK-293T) (PSI 1-6); higher = more stable. The conditions noted are these: c terminus: a fixed tail appended.
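Also: 24-mer peptide tiles fused after GFP, lentivirally expressed, FACS-sorted into six equal bins by GFP/DsRed ratio, decoded by Illumina sequencing, PSI is the read-weighted mean bin number.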

DYSDHPSGGSYRDSYESYGNSRSA [RBMX] showed a protein stability index (treatment: DMSO) of 4.43 ± 0.36 and a protein stability index (treatment: MLN4924 1 uM, 8 h) of 4.44 ± 0.26.

Consider DYSHRQKEQDVEKELRDGGEQDTW [NFE2L1], for which the protein stability index is, setting by setting: (treatment: DMSO) 5.63 ± 0.5; (treatment: MLN4924 1 uM, 8 h) 5.46 ± 0.44.

Regarding EAIPILRAALKLEPSNKTIHAELS [FKBP8], the protein stability index runs as follows: (treatment: DMSO) 2.49 ± 0.32; (treatment: MLN4924 1 uM, 8 h) 2.65 ± 0.14.

For EAVESRGGVPGGCVLVPRADLRLG [SMAD6], the protein stability index runs as follows: (treatment: DMSO) 4.07 ± 0.47; (treatment: MLN4924 1 uM, 8 h) 4.34 ± 0.17.

Sequence ECKKLFQVPEEMSRCRNSYTEQEL [DLC1] had a protein stability index (treatment: DMSO) of 3.76 ± 0.092 and a protein stability index (treatment: MLN4924 1 uM, 8 h) of 4 ± 0.22.

In the case of ECTQMDHLGCMHYTVRAPVGVAGL [ALDH8A1], the protein stability index (treatment: DMSO) stood at 2.51 ± 0.37 and the protein stability index (treatment: MLN4924 1 uM, 8 h) was determined as 2.68 ± 0.36.

In the case of EDEGFLREEERPLPRRDFQRQVWL [KCNA3], the protein stability index stood at 3.97 ± 0.1 (treatment: DMSO) and 4 ± 0.4 (treatment: MLN4924 1 uM, 8 h).

With EDFTNTLRELGHAEHEITELTATF [PKD2L1], the protein stability index is, setting by setting: (treatment: DMSO) 4.43 ± 0.34; (treatment: MLN4924 1 uM, 8 h) 4.22 ± 0.091.

EDILNDPSQSEVMGEPHLMVEYKL [POMP]: the protein stability index worked out at 3.7 ± 0.17 (treatment: DMSO) and 3.72 ± 0.18 (treatment: MLN4924 1 uM, 8 h).

In the case of EDQEEWHAQVVEELSNFKSQKVLG [ZBED1], the protein stability index (treatment: DMSO) was 5.41 ± 0.21 and the protein stability index (treatment: MLN4924 1 uM, 8 h) turned out to be 5.54 ± 0.21.

Turning to EDQKLQVLLTQIESKKHQVETAFE [TRIM15], the protein stability index turned out to be 4.29 ± 0.22 (treatment: DMSO) and 4.51 ± 0.29 (treatment: MLN4924 1 uM, 8 h).

As to EDRIVTQNRVFAYLCKRVPHTVLD [CEP70], the protein stability index by setting is: (treatment: DMSO) 2.27 ± 0.2; (treatment: MLN4924 1 uM, 8 h) 2.37 ± 0.37.

For the sequence EDTQRHETYHQQGQCQVLVQRSPW [TCAP], the protein stability index was 4.03 ± 0.29 (treatment: DMSO) and 3.79 ± 0.17 (treatment: MLN4924 1 uM, 8 h).

Consider EDVPLAAKLVDLPCVIESLRTLDK [TAF7L], for which the protein stability index stood at 3.64 ± 0.29 (treatment: DMSO) and 3.48 ± 0.21 (treatment: MLN4924 1 uM, 8 h).

Consider EEEEDDLSELPPLEDMGQPPAEEA [FKBP8], for which the protein stability index amounted to 5.63 ± 0.2 (treatment: DMSO) and 5.5 ± 0.38 (treatment: MLN4924 1 uM, 8 h).

Take EEFAQAESKDQGKTLALARTMDIP [ALDH8A1]: the protein stability index (treatment: DMSO) was determined as 5.13 ± 0.19 and the protein stability index (treatment: MLN4924 1 uM, 8 h) came out at 5.38 ± 0.15.

As for EEHLSPLDFLHSANFSLGSINQRL [RNF180], the protein stability index by setting is: (treatment: DMSO) 3.17 ± 0.38; (treatment: MLN4924 1 uM, 8 h) 3.41 ± 0.24.

As for EELRQEWEAKQEKIKSEEIEITFS [FAM50A], the protein stability index was determined as 4.98 ± 0.11 (treatment: DMSO) and 4.95 ± 0.35 (treatment: MLN4924 1 uM, 8 h).

For the sequence EELTYIIKQDINSLNKQIAQLQDF [STX5], the protein stability index by setting is: (treatment: DMSO) 2.61 ± 0.21; (treatment: MLN4924 1 uM, 8 h) 2.85 ± 0.26.

As to EENALWEEERAFWMENNGHVAGEQ [CCDC70], the protein stability index was found to be 4.99 ± 0.22 (treatment: DMSO) and 5.29 ± 0.13 (treatment: MLN4924 1 uM, 8 h).

With EESEPGTLVGNVAQDLGLKMTDLL [PCDHGC5], the protein stability index is, setting by setting: (treatment: DMSO) 4.34 ± 0.081; (treatment: MLN4924 1 uM, 8 h) 4.29 ± 0.55.

On to EFARKGSCFLINTADRIIRVYDGR [RBBP5], for which the protein stability index came out at 2.23 ± 0.67 (treatment: DMSO) and 2.24 ± 0.26 (treatment: MLN4924 1 uM, 8 h).

With EFKRLASSKAHTSRFISANLPCNK [PTPRD], the protein stability index reads like this: (treatment: DMSO) 2.88 ± 0.1; (treatment: MLN4924 1 uM, 8 h) 2.97 ± 0.41.

Consider EFPADISSITEAVPSESEPPALQN [NFE2L1], for which the protein stability index came out at 5.31 ± 0.36 (treatment: DMSO) and 5.44 ± 0.22 (treatment: MLN4924 1 uM, 8 h).

In turn, EFPEDPEFEAVVRQAELAIERCIF [PI4K2A] registered a protein stability index (treatment: DMSO) of 2.72 ± 0.1 and a protein stability index (treatment: MLN4924 1 uM, 8 h) of 2.96 ± 0.22.

EFQPAKCTDKENALKLFPVQPCSA [FAM189A2]: the protein stability index (treatment: DMSO) is 3.97 ± 0.17 and the protein stability index (treatment: MLN4924 1 uM, 8 h) was 4.03 ± 0.51.

As to EHIYDLRSLENYHFVDEHGKDQGI [CLINT1], the protein stability index stood at 4.1 ± 0.25 (treatment: DMSO) and 4.08 ± 0.1 (treatment: MLN4924 1 uM, 8 h).

Consider EIFVDCDINREQLNDIFHLLKSHT [TPH1], for which the protein stability index reads like this: (treatment: DMSO) 2.19 ± 0.3; (treatment: MLN4924 1 uM, 8 h) 2.19 ± 0.35.

As for EKEVLRRERAVEWRERAVEKRERA [ZBED2], the protein stability index was determined as 4.93 ± 0.44 (treatment: DMSO) and 4.95 ± 0.27 (treatment: MLN4924 1 uM, 8 h).

EKQMEEKRRANQKSSAQGPIPWFL [PPEF2]: the protein stability index came to 3.71 ± 0.17 (treatment: DMSO) and 3.68 ± 0.32 (treatment: MLN4924 1 uM, 8 h).

Take ELAYLRKNHEEEMLALRGQTGGDV [KRT16]: the protein stability index was 4.26 ± 0.28 (treatment: DMSO) and 4.41 ± 0.17 (treatment: MLN4924 1 uM, 8 h).

Consider ELLALETALGGQCVDRQEVAEITK [TCAP], for which the protein stability index by setting is: (treatment: DMSO) 4.15 ± 0.26; (treatment: MLN4924 1 uM, 8 h) 4.5 ± 0.24.

As to ELLCCTNVSTKEGIHLALVELLKN [INTS4], the protein stability index by setting is: (treatment: DMSO) 2.19 ± 0.74; (treatment: MLN4924 1 uM, 8 h) 2.4 ± 0.41.

Turning to ELLTGQPLWPGKSDVDQLYLIIRT [CDKL4], the protein stability index reads like this: (treatment: DMSO) 2.31 ± 0.69; (treatment: MLN4924 1 uM, 8 h) 2.24 ± 0.43.

In the case of EMFLYFEDHGLVTCSADHLIILWK [WDR41], the protein stability index runs as follows: (treatment: DMSO) 2.76 ± 0.4; (treatment: MLN4924 1 uM, 8 h) 2.68 ± 0.67.

As for EPPQDSHSRKTVLIKTIETRNGEV [PRPH], the protein stability index is, setting by setting: (treatment: DMSO) 4.67 ± 0.28; (treatment: MLN4924 1 uM, 8 h) 4.79 ± 0.4.

EPSSDPSLLGEPCAGPGFTHNIAH [SPAG8]: the protein stability index is 4.65 ± 0.074 (treatment: DMSO) and 4.52 ± 0.22 (treatment: MLN4924 1 uM, 8 h).

On to EPSSSKDSDENSKPSVDTEGPALV [MIA2], for which the protein stability index amounted to 5.53 ± 0.45 (treatment: DMSO) and 5.51 ± 0.25 (treatment: MLN4924 1 uM, 8 h).

As to EQHNWNIEAAVQDRLNEQEGVPSV [FAF2], the protein stability index was found to be 5.05 ± 0.22 (treatment: DMSO) and 5.17 ± 0.32 (treatment: MLN4924 1 uM, 8 h).

Sequence EQQRCLLLARLRELEQQIWKERDE [TRIM15] displayed a protein stability index (treatment: DMSO) of 3.03 ± 0.28 and a protein stability index (treatment: MLN4924 1 uM, 8 h) of 3.29 ± 0.36.

For the sequence ERAIETLIKNFHQYSVEGGKETLT [S100A14], the protein stability index reads like this: (treatment: DMSO) 3.53 ± 0.23; (treatment: MLN4924 1 uM, 8 h) 3.41 ± 0.22.

For ERGVEGDFLIRDSESSPSDFSVSL [NCK2], the protein stability index is, setting by setting: (treatment: DMSO) 4.37 ± 0.2; (treatment: MLN4924 1 uM, 8 h) 4.26 ± 0.25.

ERMTTREKKVLEAGMGKVTSASFG [HDAC6]: the protein stability index turned out to be 4.1 ± 0.14 (treatment: DMSO) and 4.19 ± 0.14 (treatment: MLN4924 1 uM, 8 h).

Consider ERQDMYQCLVEGCTEKFKTSRDRK [ZNF511], for which the protein stability index runs as follows: (treatment: DMSO) 4.09 ± 0.48; (treatment: MLN4924 1 uM, 8 h) 4.29 ± 0.25.

Consider ERYEIDSLIGKGSFGQVVKAYDHQ [DYRK1B], for which the protein stability index runs as follows: (treatment: DMSO) 3.92 ± 0.21; (treatment: MLN4924 1 uM, 8 h) 4.02 ± 0.17.

ERYFIPVSCFLTFNIFDWLGRSLT [SLC29A1]: the protein stability index reads like this: (treatment: DMSO) 2.77 ± 0.26; (treatment: MLN4924 1 uM, 8 h) 3.08 ± 0.46.

Turning to ETCSCGYYLHPLPAGAEYCSSARH [SCNN1D], the protein stability index reads like this: (treatment: DMSO) 3.52 ± 0.36; (treatment: MLN4924 1 uM, 8 h) 3.63 ± 0.43.

Take EVSCQCQLHPPRWYSRLQACQWGG: the protein stability index reads like this: (treatment: DMSO) 2.17 ± 0.13; (treatment: MLN4924 1 uM, 8 h) 2.29 ± 0.4.

For the sequence EVTDKEQEFAARAAKQLEYQQLED [EPB41L3], the protein stability index by setting is: (treatment: DMSO) 5.65 ± 0.27; (treatment: MLN4924 1 uM, 8 h) 5.62 ± 0.33.

Turning to EVYQEVQAMFDTLGIPKSTTSDIP [FAM98B], the protein stability index reads like this: (treatment: DMSO) 3.09 ± 0.31; (treatment: MLN4924 1 uM, 8 h) 3.5 ± 0.49.

With EWAALGNMSKEDAMVEFVKLLNRC [ACBD3], the protein stability index runs as follows: (treatment: DMSO) 2.48 ± 0.22; (treatment: MLN4924 1 uM, 8 h) 2.59 ± 0.3.

Regarding FDFDDDGTLNREDLSRLVNCLTGE [CIB1], the protein stability index is, setting by setting: (treatment: DMSO) 4.21 ± 0.21; (treatment: MLN4924 1 uM, 8 h) 4.29 ± 0.34.

For FDRVDENNPEYLRERNMAPDLRQD [ADD1], the protein stability index amounted to 5.1 ± 0.064 (treatment: DMSO) and 5.32 ± 0.25 (treatment: MLN4924 1 uM, 8 h).
